B1: Pistol ribozyme (parent)
chain: GGGUCGUUGUUCCAUAAUCGCGUGGAUAUGGCACGCAAGUUUCUACCGGGCACCGUAAAUGUCCGACUGGAGCCGUUCGGGCGGCUAUAAACAGACCUCAGGCCCGAAGCGUGGCGGCACCUGCCGCCGGUGGUAAAAAAGAUCGGAAGAGCACACGUCU

Variants of: B1
Assay: aptazyme ON/OFF ratio, guanine; higher = stronger switching; co-transcriptional cleavage with and without guanine

| Variant | aptazyme ON/OFF ratio |
| --- | --- |
| GGGUCGGGAGGCUAUAAUCGCGUGGAUAUGGCACGCAAGUUUCUACCGGGCACCGUAAAUGUCCGACUGGAGCCGUUCGGGCGGCUAUAAACAGACCUCAGGCCCGAAGCGUGGCGGCACCUGCCGCCGGUGGUAAAAAAGAUCGGAAGAGCACACGUCU | 1.22 |
| GGGUCGGCGUCUAAUAAUCGCGUGGAUAUGGCACGCAAGUUUCUACCGGGCACCGUAAAUGUCCGACUGGAGCCGUUCGGGCGGCUAUAAACAGACCUCAGGCCCGAAGCGUGGCGGCACCUGCCGCCGGUGGUAAAAAAGAUCGGAAGAGCACACGUCU | 1.34 |
| GGGUCGGUUAAAAAUAAUCGCGUGGAUAUGGCACGCAAGUUUCUACCGGGCACCGUAAAUGUCCGACUGGAGCCGUUCGGGCGGCUAUAAACAGACCUCAGGCCCGAAGCGUGGCGGCACCUGCCGCCGGUGGUAAAAAAGAUCGGAAGAGCACACGUCU | 1.17 |
| GGGUCGGCGCAUCAUAAUCGCGUGGAUAUGGCACGCAAGUUUCUACCGGGCACCGUAAAUGUCCGACUGGAGCCGUUCGGGCGGCUAUAAACAGACCUCAGGCCCGAAGCGUGGCGGCACCUGCCGCCGGUGGUAAAAAAGAUCGGAAGAGCACACGUCU | 1.39 |
| GGGUCGGACAAACAUAAUCGCGUGGAUAUGGCACGCAAGUUUCUACCGGGCACCGUAAAUGUCCGACUGGAGCCGUUCGGGCGGCUAUAAACAGACCUCAGGCCCGAAGCGUGGCGGCACCUGCCGCCGGUGGUAAAAAAGAUCGGAAGAGCACACGUCU | 1.03 |
| GGGUCGUACUGUGAUAAUCGCGUGGAUAUGGCACGCAAGUUUCUACCGGGCACCGUAAAUGUCCGACUGGAGCCGUUCGGGCGGCUAUAAACAGACCUCAGGCCCGAAGCGUGGCGGCACCUGCCGCCGGUGGUAAAAAAGAUCGGAAGAGCACACGUCU | 1.27 |
| GGGUCGUUAUCGGAUAAUCGCGUGGAUAUGGCACGCAAGUUUCUACCGGGCACCGUAAAUGUCCGACUGGAGCCGUUCGGGCGGCUAUAAACAGACCUCAGGCCCGAAGCGUGGCGGCACCUGCCGCCGGUGGUAAAAAAGAUCGGAAGAGCACACGUCU | 1.15 |
| GGGUCGCAUACGCAUAAUCGCGUGGAUAUGGCACGCAAGUUUCUACCGGGCACCGUAAAUGUCCGACUGGAGCCGUUCGGGCGGCUAUAAACAGACCUCAGGCCCGAAGCGUGGCGGCACCUGCCGCCGGUGGUAAAAAAGAUCGGAAGAGCACACGUCU | 1.28 |
| GGGUCGUAAGAGAAUAAUCGCGUGGAUAUGGCACGCAAGUUUCUACCGGGCACCGUAAAUGUCCGACUGGAGCCGUUCGGGCGGCUAUAAACAGACCUCAGGCCCGAAGCGUGGCGGCACCUGCCGCCGGUGGUAAAAAAGAUCGGAAGAGCACACGUCU | 1.24 |
| GGGUCGCAACGAUAUAAUCGCGUGGAUAUGGCACGCAAGUUUCUACCGGGCACCGUAAAUGUCCGACUGGAGCCGUUCGGGCGGCUAUAAACAGACCUCAGGCCCGAAGCGUGGCGGCACCUGCCGCCGGUGGUAAAAAAGAUCGGAAGAGCACACGUCU | 1.14 |
| GGGUCGCAGUUCGAUAAUCGCGUGGAUAUGGCACGCAAGUUUCUACCGGGCACCGUAAAUGUCCGACUGGAGCCGUUCGGGCGGCUAUAAACAGACCUCAGGCCCGAAGCGUGGCGGCACCUGCCGCCGGUGGUAAAAAAGAUCGGAAGAGCACACGUCU | 1.11 |
| GGGUCGGUGGCAGAUAAUCGCGUGGAUAUGGCACGCAAGUUUCUACCGGGCACCGUAAAUGUCCGACUGGAGCCGUUCGGGCGGCUAUAAACAGACCUCAGGCCCGAAGCGUGGCGGCACCUGCCGCCGGUGGUAAAAAAGAUCGGAAGAGCACACGUCU | 1.12 |
| GGGUCGUCGAAAAAUAAUCGCGUGGAUAUGGCACGCAAGUUUCUACCGGGCACCGUAAAUGUCCGACUGGAGCCGUUCGGGCGGCUAUAAACAGACCUCAGGCCCGAAGCGUGGCGGCACCUGCCGCCGGUGGUAAAAAAGAUCGGAAGAGCACACGUCU | 1.19 |
| GGGUCGCGUCCAGAUAAUCGCGUGGAUAUGGCACGCAAGUUUCUACCGGGCACCGUAAAUGUCCGACUGGAGCCGUUCGGGCGGCUAUAAACAGACCUCAGGCCCGAAGCGUGGCGGCACCUGCCGCCGGUGGUAAAAAAGAUCGGAAGAGCACACGUCU | 1.19 |
| GGGUCGUCUGUCUAUAAUCGCGUGGAUAUGGCACGCAAGUUUCUACCGGGCACCGUAAAUGUCCGACUGGAGCCGUUCGGGCGGCUAUAAACAGACCUCAGGCCCGAAGCGUGGCGGCACCUGCCGCCGGUGGUAAAAAAGAUCGGAAGAGCACACGUCU | 1.67 |
| GGGUCGAUUACAUAUAAUCGCGUGGAUAUGGCACGCAAGUUUCUACCGGGCACCGUAAAUGUCCGACUGGAGCCGUUCGGGCGGCUAUAAACAGACCUCAGGCCCGAAGCGUGGCGGCACCUGCCGCCGGUGGUAAAAAAGAUCGGAAGAGCACACGUCU | 1.17 |
| GGGUCGUGUCAUAAUAAUCGCGUGGAUAUGGCACGCAAGUUUCUACCGGGCACCGUAAAUGUCCGACUGGAGCCGUUCGGGCGGCUAUAAACAGACCUCAGGCCCGAAGCGUGGCGGCACCUGCCGCCGGUGGUAAAAAAGAUCGGAAGAGCACACGUCU | 1.08 |
| GGGUCGAUAAAUCAUAAUCGCGUGGAUAUGGCACGCAAGUUUCUACCGGGCACCGUAAAUGUCCGACUGGAGCCGUUCGGGCGGCUAUAAACAGACCUCAGGCCCGAAGCGUGGCGGCACCUGCCGCCGGUGGUAAAAAAGAUCGGAAGAGCACACGUCU | 1.21 |

— the RNAGym collection of RNA variant scans (doi:10.1021/acssynbio.7b00057)
